Reference: patent publication US20200262877A1, “ION CHANNEL-BINDING PEPTIDES AND METHODS OF USE THEREOF” (priority 2017, published 2020)

Columns and labels:
Kv1.2 = molecular target: T1, Kv1.2 (Homo sapiens, UniProt P16389); assay: cell-based; type: cell-based; conditions: 100% = no change, <100% = inhibition
T1 construct: host or cells: HEK293 or CHO
Summary of the method: (§1)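 Transfected HEK293 or CHO cells were exposed for at least 5 min to peptides at 200 nM and 20 μM final, tested in duplicate, in HEPES-buffered physiological saline. Activation was taken as peptide-plus-agonist current over control current ×100, and inhibition as 1 minus that ratio ×100. Each channel's control was its own reference compound.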

Kv1.1 = molecular target: T2, Kv1.1 (Homo sapiens, UniProt Q09470); assay: cell-based; type: cell-based; conditions: 100% = no change, <100% = inhibition
T2 construct: host or cells: HEK293 or CHO
Summary of the method: as §1

Kv1.3 = molecular target: T3, Kv1.3 (Homo sapiens, UniProt P22001); assay: cell-based; type: cell-based; conditions: 100% = no change, <100% = inhibition
T3 construct: host or cells: HEK293 or CHO
Summary of the method: as §1

Kir2.1 = molecular target: T4, Kir2.1 (Homo sapiens, UniProt P63252); assay: Ion channel panel (IonWorks Barracuda): Kir2.1; type: cell-based; conditions: 100% = no change, <100% = inhibition
T4 construct: host or cells: HEK293 or CHO
Summary of the method: as §1

5HT3a = molecular target: T5, 5HT3a (Homo sapiens, UniProt P46098); assay: Ion channel panel (IonWorks Barracuda): 5HT3a; type: cell-based
T5 construct: host or cells: HEK293 or CHO
T5 sequence (P46098 whole entry, looked up): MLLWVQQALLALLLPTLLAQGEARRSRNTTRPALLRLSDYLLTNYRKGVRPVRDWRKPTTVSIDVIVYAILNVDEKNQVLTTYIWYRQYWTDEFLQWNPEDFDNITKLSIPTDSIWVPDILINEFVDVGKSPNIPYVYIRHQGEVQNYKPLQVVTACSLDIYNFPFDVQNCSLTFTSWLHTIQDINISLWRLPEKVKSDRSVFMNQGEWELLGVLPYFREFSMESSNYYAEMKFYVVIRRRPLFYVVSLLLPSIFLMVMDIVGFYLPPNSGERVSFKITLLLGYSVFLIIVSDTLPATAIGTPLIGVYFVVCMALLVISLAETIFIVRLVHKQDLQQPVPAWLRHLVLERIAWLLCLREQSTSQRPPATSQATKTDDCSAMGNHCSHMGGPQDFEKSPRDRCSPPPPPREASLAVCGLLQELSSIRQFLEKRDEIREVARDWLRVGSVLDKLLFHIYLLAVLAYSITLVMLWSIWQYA
Summary of the method: as §1

GABA = assay: Ion channel panel (IonWorks Barracuda): GABA; type: cell-based; conditions: 100% = no change, <100% = inhibition
Summary of the method: as §1

hERG = hERG (Homo sapiens, UniProt Q12809); assay: in vitro; conditions: 100% = no change, <100% = inhibition
Summary of the method: as §1

Nav1.5 = Nav1.5 (Homo sapiens, UniProt Q14524); assay: in vitro; conditions: 100% = no change; for Activity of Nav1.5 with peptide, expressed as a percentage of the reference compound: peptide at 0.2 μM; for Activity of Nav1.5 with peptide (percentage of the reference compound): peptide at 20 μM
Summary of the method: as §1

NR2A = molecular target: T6, NR2A (Homo sapiens, UniProt Q12879); assay: Ion channel panel (IonWorks Barracuda): NR2A; type: cell-based; conditions: 100% = no change, <100% = inhibition
T6 construct: host or cells: HEK293 or CHO
Summary of the method: as §1

TRPA1 = molecular target: T7, TRPA1 (Homo sapiens, UniProt O75762); assay: Ion channel panel (IonWorks Barracuda): TRPA1; type: cell-based; conditions: 100% = no change, <100% = inhibition
T7 construct: host or cells: HEK293 or CHO
Summary of the method: as §1

α4β2 = molecular target: T8, α4β2 (Homo sapiens, UniProt P17787+P43681); assay: Ion channel panel (IonWorks Barracuda): α4β2; type: cell-based; conditions: 100% = no change, <100% = inhibition
T8 construct: host or cells: HEK293 or CHO
Summary of the method: as §1

TRPV1 = molecular target: T9, TRPV1 (Homo sapiens, UniProt Q8NER1); assay: Ion channel panel (IonWorks Barracuda): TRPV1; type: cell-based; conditions: 100% = no change, <100% = inhibition
T9 construct: host or cells: HEK293 or CHO
Summary of the method: as §1

Nav1.7 = molecular target: T10, Nav1.7 (Homo sapiens, UniProt Q15858); assay: cell-based; type: cell-based; conditions: 100% = no change; for Activity of Nav1.7 with peptide, expressed as a percentage of the reference compound: peptide at 0.2 μM; for Activity of Nav1.7 with peptide (percentage of the reference compound): peptide at 20 μM
T10 construct: host or cells: HEK293 or CHO

Kv2.1 = molecular target: T11, Kv2.1 (Homo sapiens, UniProt Q14721); assay: cell-based; conditions: 100% = no change, <100% = inhibition
T11 construct: host or cells: HEK293 or CHO
Summary of the method: as §1

Cav2.1 = molecular target: T12, Cav2.1 (Homo sapiens, UniProt O00555); assay: cell-based; conditions: 100% = no change, <100% = inhibition
T12 construct: host or cells: HEK293 or CHO
Summary of the method: as §1

Cav2.2 = molecular target: T13, Cav2.2 (Homo sapiens, UniProt Q00975); assay: cell-based; conditions: 100% = no change, <100% = inhibition
T13 construct: host or cells: HEK293 or CHO
Summary of the method: as §1

NR2B = molecular target: T14, NR2B (Homo sapiens, UniProt Q13224); assay: Ion channel panel (IonWorks Barracuda): NR2B; type: cell-based; conditions: 100% = no change, <100% = inhibition
T14 construct: host or cells: HEK293 or CHO
Summary of the method: as §1

α3β4 = molecular target: T15, α3β4 (Homo sapiens, UniProt P30926+P32297); assay: Ion channel panel (IonWorks Barracuda): α3β4; type: cell-based; conditions: 100% = no change, <100% = inhibition
T15 construct: host or cells: HEK293 or CHO
Summary of the method: as §1

[1] = first of two Nav1.5 columns (probably TP1)
[2] = second of two Nav1.5 columns (probably TP2)
[3] = first of two Nav1.7 columns (probably TP1)
[4] = second of two Nav1.7 columns (probably TP2)

T10 sequence (Q15858 whole entry): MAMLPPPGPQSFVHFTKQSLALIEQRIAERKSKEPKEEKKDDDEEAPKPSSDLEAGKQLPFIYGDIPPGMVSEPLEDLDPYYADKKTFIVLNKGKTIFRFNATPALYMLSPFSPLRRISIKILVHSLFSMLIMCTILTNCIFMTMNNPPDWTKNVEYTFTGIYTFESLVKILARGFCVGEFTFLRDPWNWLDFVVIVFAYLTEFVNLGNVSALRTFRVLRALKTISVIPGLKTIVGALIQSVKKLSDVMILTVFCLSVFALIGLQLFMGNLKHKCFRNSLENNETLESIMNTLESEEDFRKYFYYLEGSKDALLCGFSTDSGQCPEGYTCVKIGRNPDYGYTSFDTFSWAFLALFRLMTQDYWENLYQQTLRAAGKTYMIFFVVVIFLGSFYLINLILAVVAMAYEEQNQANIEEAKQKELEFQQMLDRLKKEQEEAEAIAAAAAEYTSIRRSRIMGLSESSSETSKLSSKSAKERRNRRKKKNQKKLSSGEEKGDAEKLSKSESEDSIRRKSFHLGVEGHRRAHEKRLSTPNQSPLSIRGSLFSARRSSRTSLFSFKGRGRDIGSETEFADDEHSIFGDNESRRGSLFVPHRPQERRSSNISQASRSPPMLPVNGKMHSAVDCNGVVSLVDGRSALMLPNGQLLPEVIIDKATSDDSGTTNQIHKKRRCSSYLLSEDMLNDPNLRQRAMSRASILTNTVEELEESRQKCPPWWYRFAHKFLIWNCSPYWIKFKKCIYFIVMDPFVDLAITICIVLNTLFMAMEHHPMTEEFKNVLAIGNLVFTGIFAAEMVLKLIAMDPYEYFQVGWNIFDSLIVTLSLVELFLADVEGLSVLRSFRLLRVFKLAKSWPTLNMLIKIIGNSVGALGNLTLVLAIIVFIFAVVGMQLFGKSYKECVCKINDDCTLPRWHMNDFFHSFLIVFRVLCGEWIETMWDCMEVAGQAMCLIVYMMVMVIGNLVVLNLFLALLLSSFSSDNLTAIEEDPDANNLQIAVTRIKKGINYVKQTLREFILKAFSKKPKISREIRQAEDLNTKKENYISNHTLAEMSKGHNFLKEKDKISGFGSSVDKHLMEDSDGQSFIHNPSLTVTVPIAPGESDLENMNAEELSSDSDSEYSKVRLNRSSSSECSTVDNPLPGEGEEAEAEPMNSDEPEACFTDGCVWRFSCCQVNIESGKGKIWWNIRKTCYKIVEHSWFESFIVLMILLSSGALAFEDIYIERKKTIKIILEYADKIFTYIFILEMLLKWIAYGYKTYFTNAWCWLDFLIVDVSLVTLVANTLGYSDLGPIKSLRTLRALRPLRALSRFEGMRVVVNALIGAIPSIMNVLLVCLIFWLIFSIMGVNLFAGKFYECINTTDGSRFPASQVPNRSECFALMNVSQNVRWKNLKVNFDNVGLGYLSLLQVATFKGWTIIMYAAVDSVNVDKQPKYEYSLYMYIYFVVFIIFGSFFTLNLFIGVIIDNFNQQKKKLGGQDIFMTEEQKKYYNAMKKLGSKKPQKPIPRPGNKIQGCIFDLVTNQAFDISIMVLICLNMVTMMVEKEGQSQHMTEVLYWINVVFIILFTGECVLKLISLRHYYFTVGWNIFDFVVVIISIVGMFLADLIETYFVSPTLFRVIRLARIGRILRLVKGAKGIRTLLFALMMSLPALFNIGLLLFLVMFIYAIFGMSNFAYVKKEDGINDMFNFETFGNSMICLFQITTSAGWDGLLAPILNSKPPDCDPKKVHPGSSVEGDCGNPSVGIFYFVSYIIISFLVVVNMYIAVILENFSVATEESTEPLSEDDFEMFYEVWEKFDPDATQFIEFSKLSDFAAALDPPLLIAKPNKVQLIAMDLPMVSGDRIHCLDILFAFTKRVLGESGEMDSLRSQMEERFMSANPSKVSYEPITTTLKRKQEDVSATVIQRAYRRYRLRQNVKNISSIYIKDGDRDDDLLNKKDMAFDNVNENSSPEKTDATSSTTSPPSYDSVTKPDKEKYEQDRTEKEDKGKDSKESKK
Nav1.5, sequence (Q14524 whole entry): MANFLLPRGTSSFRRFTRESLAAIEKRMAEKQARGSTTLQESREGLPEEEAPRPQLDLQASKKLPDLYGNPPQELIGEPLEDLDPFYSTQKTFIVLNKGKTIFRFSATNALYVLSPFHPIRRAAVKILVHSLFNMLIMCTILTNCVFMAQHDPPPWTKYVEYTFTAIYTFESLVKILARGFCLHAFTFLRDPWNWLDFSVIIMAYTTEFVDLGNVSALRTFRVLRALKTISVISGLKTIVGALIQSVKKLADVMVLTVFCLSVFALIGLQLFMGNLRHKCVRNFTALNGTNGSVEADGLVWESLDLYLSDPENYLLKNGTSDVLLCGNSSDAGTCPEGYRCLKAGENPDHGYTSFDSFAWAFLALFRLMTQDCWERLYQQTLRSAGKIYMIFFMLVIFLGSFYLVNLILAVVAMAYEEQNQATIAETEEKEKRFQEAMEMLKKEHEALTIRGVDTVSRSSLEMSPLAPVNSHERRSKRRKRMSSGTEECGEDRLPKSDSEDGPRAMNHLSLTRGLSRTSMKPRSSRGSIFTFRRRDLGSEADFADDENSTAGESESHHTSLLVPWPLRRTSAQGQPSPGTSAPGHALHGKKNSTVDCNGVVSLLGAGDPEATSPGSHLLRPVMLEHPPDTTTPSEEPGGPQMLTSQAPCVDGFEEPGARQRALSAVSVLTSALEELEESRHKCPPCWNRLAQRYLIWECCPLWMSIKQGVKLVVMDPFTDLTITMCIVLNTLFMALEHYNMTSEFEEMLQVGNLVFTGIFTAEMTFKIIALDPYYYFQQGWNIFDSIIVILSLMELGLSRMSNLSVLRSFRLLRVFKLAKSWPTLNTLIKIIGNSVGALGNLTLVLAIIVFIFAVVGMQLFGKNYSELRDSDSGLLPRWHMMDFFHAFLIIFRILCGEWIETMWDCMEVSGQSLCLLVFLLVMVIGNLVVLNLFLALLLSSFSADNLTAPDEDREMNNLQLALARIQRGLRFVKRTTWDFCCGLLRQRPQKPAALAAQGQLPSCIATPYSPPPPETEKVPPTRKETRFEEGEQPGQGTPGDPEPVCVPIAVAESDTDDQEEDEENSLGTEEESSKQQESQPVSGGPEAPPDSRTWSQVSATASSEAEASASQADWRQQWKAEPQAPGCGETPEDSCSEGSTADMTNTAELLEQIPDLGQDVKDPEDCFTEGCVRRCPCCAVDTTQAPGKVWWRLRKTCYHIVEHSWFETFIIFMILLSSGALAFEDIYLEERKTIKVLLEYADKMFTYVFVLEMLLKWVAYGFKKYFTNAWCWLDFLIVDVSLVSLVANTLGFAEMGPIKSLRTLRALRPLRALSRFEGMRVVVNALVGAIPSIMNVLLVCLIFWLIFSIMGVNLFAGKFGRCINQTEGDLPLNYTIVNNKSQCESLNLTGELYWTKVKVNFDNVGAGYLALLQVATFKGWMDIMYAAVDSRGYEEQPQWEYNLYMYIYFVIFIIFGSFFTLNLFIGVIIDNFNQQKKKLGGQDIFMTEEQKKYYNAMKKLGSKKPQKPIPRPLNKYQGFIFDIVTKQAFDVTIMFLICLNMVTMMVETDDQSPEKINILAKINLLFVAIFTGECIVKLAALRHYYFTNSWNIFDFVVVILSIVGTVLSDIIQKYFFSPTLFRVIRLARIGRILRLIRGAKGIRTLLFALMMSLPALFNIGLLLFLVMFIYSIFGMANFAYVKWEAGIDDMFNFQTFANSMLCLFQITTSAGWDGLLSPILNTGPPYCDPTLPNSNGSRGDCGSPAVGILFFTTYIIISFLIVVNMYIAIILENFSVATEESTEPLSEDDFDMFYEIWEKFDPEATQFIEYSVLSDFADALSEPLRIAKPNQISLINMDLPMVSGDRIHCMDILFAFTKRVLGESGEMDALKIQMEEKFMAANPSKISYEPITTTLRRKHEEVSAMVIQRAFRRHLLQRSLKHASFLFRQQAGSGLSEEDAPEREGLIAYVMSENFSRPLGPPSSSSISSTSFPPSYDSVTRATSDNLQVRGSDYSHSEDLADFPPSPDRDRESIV
T9 sequence (Q8NER1 whole entry): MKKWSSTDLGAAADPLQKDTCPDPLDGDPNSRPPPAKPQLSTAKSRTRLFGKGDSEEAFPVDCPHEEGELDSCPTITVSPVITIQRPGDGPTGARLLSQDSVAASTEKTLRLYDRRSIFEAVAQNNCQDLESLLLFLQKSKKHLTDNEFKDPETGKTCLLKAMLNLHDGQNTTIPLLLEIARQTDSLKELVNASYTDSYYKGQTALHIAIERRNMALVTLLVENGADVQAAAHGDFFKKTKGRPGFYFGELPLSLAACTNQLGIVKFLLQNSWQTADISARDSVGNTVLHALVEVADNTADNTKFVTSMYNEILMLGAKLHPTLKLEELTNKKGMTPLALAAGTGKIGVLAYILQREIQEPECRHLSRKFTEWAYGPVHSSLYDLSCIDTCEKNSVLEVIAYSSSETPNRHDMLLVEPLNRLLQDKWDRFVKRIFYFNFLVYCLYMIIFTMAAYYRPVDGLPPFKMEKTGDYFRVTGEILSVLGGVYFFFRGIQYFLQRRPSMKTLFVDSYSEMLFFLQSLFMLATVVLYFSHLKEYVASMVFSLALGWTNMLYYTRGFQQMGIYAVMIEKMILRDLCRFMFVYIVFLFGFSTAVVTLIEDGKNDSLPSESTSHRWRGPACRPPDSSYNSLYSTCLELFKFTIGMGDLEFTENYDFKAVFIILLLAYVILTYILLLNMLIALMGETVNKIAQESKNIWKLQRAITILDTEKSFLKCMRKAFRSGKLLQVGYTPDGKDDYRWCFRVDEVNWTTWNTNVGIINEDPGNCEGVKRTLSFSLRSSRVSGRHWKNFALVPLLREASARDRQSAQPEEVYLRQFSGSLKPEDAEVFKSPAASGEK

## 13 (GSQKILSNRCNNSSECIPHCIRIFGTRAAKCINRKCYCYP) [compound 13]
Kv1.2; peptide at 0.2 μM
  Activity of Kv1.2 with peptide, expressed as a percentage of the reference compound: 88%
Kv1.2; peptide at 20 μM
  Activity of Kv1.2 with peptide (percentage of the reference compound): 40%
Kv1.1; peptide at 0.2 μM
  Activity of Kv1.1 with peptide, expressed as a percentage of the reference compound: 107%
Kv1.1; peptide at 20 μM
  Activity of Kv1.1 with peptide (percentage of the reference compound): 79%
Kv1.3; peptide at 0.2 μM
  Activity of Kv1.3 with peptide, expressed as a percentage of the reference compound: 68%
Kv1.3; peptide at 20 μM
  Activity of Kv1.3 with peptide (percentage of the reference compound): 64%
Kir2.1; peptide at 0.2 μM
  Activity of Kir2.1 with peptide, expressed as a percentage of the reference compound: 97%
Kir2.1; peptide at 20 μM
  Activity of Kir2.1 with peptide (percentage of the reference compound): 98%
5HT3a
  Activity of 5HT3a with peptide (percentage of the reference compound): 84%
  Activity of 5HT3a with peptide, expressed as a percentage of the reference compound: 96%
GABA; peptide at 0.2 μM
  Activity of GABA with peptide, expressed as a percentage of the reference compound: 107%
GABA; peptide at 20 μM
  Activity of GABA with peptide (percentage of the reference compound): 93%
hERG; peptide at 0.2 μM
  Activity of hERG with peptide, expressed as a percentage of the reference compound: 89%
hERG; peptide at 20 μM
  Activity of hERG with peptide (percentage of the reference compound): 67%
Nav1.5; [1]
  Activity of Nav1.5 with peptide, expressed as a percentage of the reference compound: 98%
  Activity of Nav1.5 with peptide (percentage of the reference compound): 97%
Nav1.5; [2]
  Activity of Nav1.5 with peptide, expressed as a percentage of the reference compound: 95%
  Activity of Nav1.5 with peptide (percentage of the reference compound): 101%
NR2A; peptide at 0.2 μM
  Activity of NR2A with peptide, expressed as a percentage of the reference compound: 94%
NR2A; peptide at 20 μM
  Activity of NR2A with peptide (percentage of the reference compound): 108%
TRPA1; peptide at 0.2 μM
  Activity of TRPA1 with peptide, expressed as a percentage of the reference compound: 129%
TRPA1; peptide at 20 μM
  Activity of TRPA1 with peptide (percentage of the reference compound): 113%
α4β2; peptide at 0.2 μM
  Activity of a4b2 with peptide, expressed as a percentage of the reference compound: 97%
α4β2; peptide at 20 μM
  Activity of a4b2 with peptide (percentage of the reference compound): 80%
TRPV1; peptide at 0.2 μM
  Activity of TRPV1 with peptide, expressed as a percentage of the reference compound: 97%
TRPV1; peptide at 20 μM
  Activity of TRPV1 with peptide (percentage of the reference compound): 88%
Nav1.7; [3]
  Activity of Nav1.7 with peptide, expressed as a percentage of the reference compound: 61%
  Activity of Nav1.7 with peptide (percentage of the reference compound): 71%
Nav1.7; [4]
  Activity of Nav1.7 with peptide, expressed as a percentage of the reference compound: 66%
  Activity of Nav1.7 with peptide (percentage of the reference compound): 62%
Kv2.1; peptide at 0.2 μM
  Activity of Kv2.1 with peptide, expressed as a percentage of the reference compound: 104%
Kv2.1; peptide at 20 μM
  Activity of Kv2.1 with peptide (percentage of the reference compound): 116%
Cav2.1; peptide at 0.2 μM
  Activity of Cav2.1 with peptide, expressed as a percentage of the reference compound: 109%
Cav2.1; peptide at 20 μM
  Activity of Cav2.1 with peptide (percentage of the reference compound): 100%
Cav2.2; peptide at 0.2 μM
  Activity of Cav2.2 with peptide, expressed as a percentage of the reference compound: 121%
Cav2.2; peptide at 20 μM
  Activity of Cav2.2 with peptide (percentage of the reference compound): 100%
NR2B; peptide at 0.2 μM
  Activity of NR2B with peptide, expressed as a percentage of the reference compound: 122%
NR2B; peptide at 20 μM
  Activity of NR2B with peptide (percentage of the reference compound): 117%
α3β4; peptide at 0.2 μM
  Activity of a3b4 with peptide, expressed as a percentage of the reference compound: 103%
α3β4; peptide at 20 μM
  Activity of a3b4 with peptide (percentage of the reference compound): 83%
